Measured values published in doi:10.1101/2020.09.10.291773 (bioRxiv, 2020).

Target: T1, HY5-S36A-GFP (Arabidopsis, UniProt O24646 1-168, S36A)
T1 sequence (looked up): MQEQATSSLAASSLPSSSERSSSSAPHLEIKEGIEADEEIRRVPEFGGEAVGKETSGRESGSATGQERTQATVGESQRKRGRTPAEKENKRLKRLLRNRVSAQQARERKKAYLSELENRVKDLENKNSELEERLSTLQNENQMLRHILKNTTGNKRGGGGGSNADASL
Assay: co-IP

B1: COP1 (CONSTITUTIVE PHOTOMORPHOGENIC1), endogenous (natural protein, Arabidopsis (endogenous in seedlings), UniProt P43254 1-675, looked up)
chain: MEEISTDPVVPAVKPDPRTSSVGEGANRHENDDGGSGGSEIGAPDLDKDLLCPICMQIIKDAFLTACGHSFCYMCIITHLRNKSDCPCCSQHLTNNQLYPNFLLDKLLKKTSARHVSKTASPLDQFREALQRGCDVSIKEVDNLLTLLAERKRKMEQEEAERNMQILLDFLHCLRKQKVDELNEVQTDLQYIKEDINAVERHRIDLYRARDRYSVKLRMLGDDPSTRNAWPHEKNQIGFNSNSLSIRGGNFVGNYQNKKVEGKAQGSSHGLPKKDALSGSDSQSLNQSTVSMARKKRIHAQFNDLQECYLQKRRQLADQPNSKQENDKSVVRREGYSNGLADFQSVLTTFTRYSRLRVIAEIRHGDIFHSANIVSSIEFDRDDELFATAGVSRCIKVFDFSSVVNEPADMQCPIVEMSTRSKLSCLSWNKHEKNHIASSDYEGIVTVWDVTTRQSLMEYEEHEKRAWSVDFSRTEPSMLVSGSDDCKVKVWCTRQEASVINIDMKANICCVKYNPGSSNYIAVGSADHHIHYYDLRNISQPLHVFSGHKKAVSYVKFLSNNELASASTDSTLRLWDVKDNLPVRTFRGHTNEKNFVGLTVNSEYLACGSETNEVYVYHKEITRPVTSHRFGSPDMDDAEEEAGSYFISAVCWKSDSPTMLTANSQGTIKVLVLAA
fold co-immunoprecipitated COP1 against the HY5-S36D-GFP line: 4 times
